We go through two molecules from PMC7337490.

The stoichiometry N is a count of units in the complex or per binding partner.

Assay [1] addresses T1, GFP-MKLP2 WT (human), O95235.
T1 chain: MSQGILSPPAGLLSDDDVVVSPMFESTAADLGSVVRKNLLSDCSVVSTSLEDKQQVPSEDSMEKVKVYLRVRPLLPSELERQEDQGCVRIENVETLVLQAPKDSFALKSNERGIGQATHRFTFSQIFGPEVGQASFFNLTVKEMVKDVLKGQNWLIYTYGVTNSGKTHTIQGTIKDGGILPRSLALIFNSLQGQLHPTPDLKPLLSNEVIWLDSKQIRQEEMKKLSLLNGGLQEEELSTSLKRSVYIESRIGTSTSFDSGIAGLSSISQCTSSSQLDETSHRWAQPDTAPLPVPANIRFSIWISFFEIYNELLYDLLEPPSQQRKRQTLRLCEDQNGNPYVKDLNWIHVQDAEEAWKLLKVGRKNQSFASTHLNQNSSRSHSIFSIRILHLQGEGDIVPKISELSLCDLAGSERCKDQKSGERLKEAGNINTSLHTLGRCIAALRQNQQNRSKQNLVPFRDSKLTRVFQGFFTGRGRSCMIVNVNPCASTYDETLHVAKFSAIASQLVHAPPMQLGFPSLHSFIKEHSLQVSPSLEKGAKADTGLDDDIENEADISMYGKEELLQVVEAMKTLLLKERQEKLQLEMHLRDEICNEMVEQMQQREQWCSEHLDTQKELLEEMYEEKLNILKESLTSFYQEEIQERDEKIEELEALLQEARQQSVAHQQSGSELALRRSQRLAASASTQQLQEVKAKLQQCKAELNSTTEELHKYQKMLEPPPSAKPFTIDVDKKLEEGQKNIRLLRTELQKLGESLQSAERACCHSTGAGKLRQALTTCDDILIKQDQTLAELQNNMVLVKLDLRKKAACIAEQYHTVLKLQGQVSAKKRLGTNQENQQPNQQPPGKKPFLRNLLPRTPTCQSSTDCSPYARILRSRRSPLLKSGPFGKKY
Kind of assay: SEC; 1 mg lysate of nocodazole-arrested HeLa cells on Superose 6 10/300 at 4°C; fractions Western blotted for MKLP2 and GFP; size from calibration standards. Particulars: remark: other sources report otherwise. (Size exclusion chromatography separates by hydrodynamic size, large species first.)

In assay [2] the target is T2, MKLP2 (endogenous) (human (endogenous in HeLa)), O95235.
T2 chain: T1 chain
Described as above. Particulars: remark: other sources report otherwise.

B1: GFP-MKLP2 WT, O95235 1-890 (natural protein)
chain: T1 chain
For the molecule B1, the stoichiometry N in assay [1] came to 2.

B2: MKLP2 (endogenous), O95235 1-890 (natural protein)
chain: T1 chain
In the case of B2, the stoichiometry N in assay [2] worked out at 2.
